The target of experiment [1] is human CD71 on cells (SKBR3; SW620-rLuc-KRAS) (human, UniProt P02786 1-760). The experiment can be described thus: cell-based or functional assay.
For experiment [2], the target named is T1, apical domain of human CD71 (human, UniProt P02786 189-383, limits assumed).
T1 construct: domain: apical domain; the panning antigen was 30% biotinylated; also called human apical domain of CD71
The experiment can be described thus: primary ELISA; signal on apical domain over signal on HSA. In general terms: An ELISA detects its analyte on a solid surface through an enzyme-linked reagent.

The target in experiment [3] is T2, human CD71 extracellular domain (human, UniProt P02786 89-760).
T2 construct: also called hCD71; human CD71-ECD
T2 sequence (P02786 89-760): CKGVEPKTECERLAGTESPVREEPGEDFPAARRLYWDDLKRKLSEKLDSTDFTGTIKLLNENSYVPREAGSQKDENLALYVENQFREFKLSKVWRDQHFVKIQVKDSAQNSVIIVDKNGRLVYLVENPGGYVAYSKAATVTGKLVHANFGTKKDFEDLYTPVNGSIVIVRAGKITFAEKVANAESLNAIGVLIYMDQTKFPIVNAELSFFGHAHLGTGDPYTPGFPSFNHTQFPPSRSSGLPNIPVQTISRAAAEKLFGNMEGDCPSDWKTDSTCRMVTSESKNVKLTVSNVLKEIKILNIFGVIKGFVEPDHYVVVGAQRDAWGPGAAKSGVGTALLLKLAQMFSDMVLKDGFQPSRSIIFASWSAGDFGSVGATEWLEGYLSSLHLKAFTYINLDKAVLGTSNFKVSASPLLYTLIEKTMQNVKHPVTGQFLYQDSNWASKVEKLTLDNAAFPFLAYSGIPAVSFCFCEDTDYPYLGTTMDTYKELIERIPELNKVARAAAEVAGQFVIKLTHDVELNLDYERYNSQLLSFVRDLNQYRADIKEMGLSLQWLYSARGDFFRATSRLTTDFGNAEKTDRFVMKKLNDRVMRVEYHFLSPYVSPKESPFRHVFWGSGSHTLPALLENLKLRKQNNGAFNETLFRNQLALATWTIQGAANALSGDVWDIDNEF
The experiment can be described thus: primary ELISA of colonies, luminescence.

In experiment [4] the target is T1, apical domain of human CD71. Briefly: primary ELISA of colonies, luminescence.
For experiment [5], the target named is T2, human CD71 extracellular domain. Briefly: primary ELISA; signal on hCD71 over signal on HSA.

Changes are numbered by the printed parent chain.

T1 sequence (P02786 189-383 limits assumed): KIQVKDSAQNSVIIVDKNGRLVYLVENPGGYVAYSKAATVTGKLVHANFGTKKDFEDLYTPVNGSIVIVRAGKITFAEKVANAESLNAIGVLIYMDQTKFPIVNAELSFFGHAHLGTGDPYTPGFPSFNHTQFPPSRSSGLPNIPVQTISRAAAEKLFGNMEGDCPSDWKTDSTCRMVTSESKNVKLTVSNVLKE
Sequence of human CD71 on cells (SKBR3; SW620-rLuc-KRAS) (P02786 whole entry, the tested form may be a part): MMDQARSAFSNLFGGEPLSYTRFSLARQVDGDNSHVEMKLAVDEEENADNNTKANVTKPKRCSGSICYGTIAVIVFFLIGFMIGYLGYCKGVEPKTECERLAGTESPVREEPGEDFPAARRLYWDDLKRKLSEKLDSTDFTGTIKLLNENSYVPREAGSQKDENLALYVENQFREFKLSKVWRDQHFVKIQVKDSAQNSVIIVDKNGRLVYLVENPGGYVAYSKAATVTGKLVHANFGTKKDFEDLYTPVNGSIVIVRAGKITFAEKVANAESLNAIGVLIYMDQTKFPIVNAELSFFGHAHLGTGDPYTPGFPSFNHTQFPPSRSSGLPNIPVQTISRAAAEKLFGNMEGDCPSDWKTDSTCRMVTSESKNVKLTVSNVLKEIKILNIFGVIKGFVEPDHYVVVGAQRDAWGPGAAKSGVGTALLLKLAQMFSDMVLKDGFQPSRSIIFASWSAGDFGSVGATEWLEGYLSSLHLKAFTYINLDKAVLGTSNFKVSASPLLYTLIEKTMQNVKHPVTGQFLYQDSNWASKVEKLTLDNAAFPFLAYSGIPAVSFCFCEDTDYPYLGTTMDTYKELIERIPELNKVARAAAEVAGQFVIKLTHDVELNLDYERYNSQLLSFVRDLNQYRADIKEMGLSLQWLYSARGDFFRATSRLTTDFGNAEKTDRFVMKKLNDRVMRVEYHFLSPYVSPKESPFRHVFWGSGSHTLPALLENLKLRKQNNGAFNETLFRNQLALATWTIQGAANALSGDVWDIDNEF

B1: CD71-binding FN3 domain of SEQ ID NO: 370 (designed binder)
chain: MLPAPKNLVVSRVTEDSARLSWTAPDAAFDSFYIAYAEPRPDGEAIVLVVPGSERSYDLTGLKPGTEYSVLIHGVKGGLLSSPLSAHFTT
In the case of B1, the “CTG EC50 (CellTiter-Glo luminescent assay, SKBR3 cells, 72 h)” value (“CTG EC50” below) in experiment [1] turned out to be 10.9 nM.

B2: CD71-binding FN3 domain of SEQ ID NO: 100 (designed binder)
chain: B1 chain with V47L, V49L, S85V, H87S
notes: Screen 1 hit, tested from colonies in the primary ELISA; not shown: C-terminal poly-histidine tag added to each FN3 domain
Turning to B2, in experiment [2], the “Apical domain:HSA” value stood at 787 ratio. The “hCD71, RLU” value in experiment [3] worked out at 6.95e+06 RLU. For the same molecule, the “Apical domain, RLU” value in experiment [4] was 6.1e+06 RLU. Further, in experiment [5], the “hCD71:HSA” value was 897 ratio.

B3: CD71-binding FN3 domain of SEQ ID NO: 116 (designed binder)
chain: B1 chain with V47L, V49L, S85I, H87G
notes: as for B2
As to B3, the “Apical domain:HSA” value in experiment [2] was 2200 ratio. For the same molecule, the “hCD71, RLU” value in experiment [3] worked out at 4.05e+06 RLU. Besides, the “Apical domain, RLU” value in experiment [4] is 6.06e+06 RLU. The “hCD71:HSA” value in experiment [5] came to 1470 ratio.

B4: CD71-binding FN3 domain of SEQ ID NO: 103 (designed binder)
chain: B1 chain with V47I, V49G, H87Y, F88S
notes: as for B2
Take B4: in experiment [2], the “Apical domain:HSA” value is 291 ratio. The “hCD71, RLU” value in experiment [3] was found to be 6.37e+06 RLU. Moreover, in experiment [4], the “Apical domain, RLU” value amounted to 5.3e+06 RLU. The “hCD71:HSA” value in experiment [5] is 350 ratio.

B5: CD71-binding FN3 domain of SEQ ID NO: 106 (designed binder)
chain: B1 chain with A28V, V47G, V49Y, S85T, H87S
notes: as for B2
Turning to B5, the “Apical domain:HSA” value in experiment [2] is 1890 ratio. In addition, the “hCD71, RLU” value in experiment [3] was found to be 3.13e+06 RLU. In experiment [4], the “Apical domain, RLU” value worked out at 4.81e+06 RLU. The “hCD71:HSA” value in experiment [5] is 1230 ratio.

B6: CD71-binding FN3 domain of SEQ ID NO: 118 (designed binder)
chain: B1 chain with V47T, V49W, L71T, H87I
notes: as for B2
Turning to B6, the “Apical domain:HSA” value in experiment [2] amounted to 1170 ratio. The “hCD71, RLU” value in experiment [3] was determined as 641000 RLU. In experiment [4], the “Apical domain, RLU” value was determined as 3.75e+06 RLU. In addition, the “hCD71:HSA” value in experiment [5] was determined as 200 ratio.

B7: CD71-binding FN3 domain of SEQ ID NO: 108 (designed binder)
chain: B1 chain with V47L, V49Q, S85V, H87K
notes: as for B2
With B7, in experiment [2], the “Apical domain:HSA” value stood at 1720 ratio. Besides, in experiment [3], the “hCD71, RLU” value turned out to be 3.81e+06 RLU. In experiment [4], the “Apical domain, RLU” value came out at 5.77e+06 RLU. Also, the “hCD71:HSA” value in experiment [5] came out at 1140 ratio.

B8: CD71-binding FN3 domain of SEQ ID NO: 105 (designed binder)
chain: MLPAPKNLVVSRVTEDSARLSWTAPDAAFDSFHIVYHEPRPSGEAIWLWVPGSERSYDLTGLKPGTEYEVGIVSVKGGDLSVPLSAIFTT
notes: as for B2
Turning to B8, the “Apical domain:HSA” value in experiment [2] worked out at 1280 ratio. Also, in experiment [3], the “hCD71, RLU” value was 1.51e+06 RLU. In addition, the “Apical domain, RLU” value in experiment [4] was found to be 3.84e+06 RLU. The “hCD71:HSA” value in experiment [5] was found to be 503 ratio.

B9: CD71-binding FN3 domain of SEQ ID NO: 114 (designed binder)
chain: B8 chain with W49F
notes: as for B2
B9: the “Apical domain:HSA” value in experiment [2] was determined as 311 ratio. Further, the “hCD71, RLU” value in experiment [3] amounted to 1.5e+06 RLU. Besides, in experiment [4], the “Apical domain, RLU” value amounted to 3.59e+06 RLU. The “hCD71:HSA” value in experiment [5] came to 130 ratio.

B10: CD71-binding FN3 domain of SEQ ID NO: 110 (designed binder)
chain: B8 chain with W47Y, W49E, S85R, I87H
notes: as for B2
In the case of B10, the “Apical domain:HSA” value in experiment [2] amounted to 2400 ratio. Moreover, the “hCD71, RLU” value in experiment [3] came to 5.17e+06 RLU. Further, in experiment [4], the “Apical domain, RLU” value is 6e+06 RLU. The “hCD71:HSA” value in experiment [5] was determined as 2070 ratio.

B11: CD71-binding FN3 domain of SEQ ID NO: 469 (designed binder)
chain: MLPAPKNLVVSRVTEDSARLSWTAPDAAFDSFFIGYLEPQPPGEAIHLYVPGSERSYDLTGLKPGTEYNVTIQGVKGGFPSLPLVATFTT
In the case of B11, the “CTG EC50” value in experiment [1] is 0.2 nM.

B12: CD71-binding FN3 domain of SEQ ID NO: 497 (designed binder)
chain: B11 chain with H47T, Y49L, L82K, V85Y, T87Y
On to B12, for which, in experiment [1], the “CTG EC50” value turned out to be 31.3 nM.

B13: CD71-binding FN3 domain of SEQ ID NO: 112 (designed binder)
chain: B11 chain with H47D, Y49W, L82M, V85S, T87I
notes: as for B2
Take B13: the “Apical domain:HSA” value in experiment [2] was 1800 ratio. Moreover, the “hCD71, RLU” value in experiment [3] was determined as 5.41e+06 RLU. The “Apical domain, RLU” value in experiment [4] came to 4.78e+06 RLU. Further, the “hCD71:HSA” value in experiment [5] stood at 2040 ratio.

B14: CD71-binding FN3 domain of SEQ ID NO: 527 (designed binder)
chain: B11 chain with L82E, V85I, T87N
In the case of B14, the “CTG EC50” value in experiment [1] is 0.1 nM.

B15: CD71-binding FN3 domain of SEQ ID NO: 491 (designed binder)
chain: B11 chain with P42S, Y49I, L82D, T87S
On to B15, for which, in experiment [1], the “CTG EC50” value worked out at 3.2 nM.

B16: CD71-binding FN3 domain of SEQ ID NO: 107 (designed binder)
chain: B11 chain with H47G, Y49Q, L82M, V85S, T87I
notes: as for B2
On to B16, for which the “Apical domain:HSA” value in experiment [2] came out at 1300 ratio. In addition, the “hCD71, RLU” value in experiment [3] was found to be 6.03e+06 RLU. In addition, in experiment [4], the “Apical domain, RLU” value was determined as 4.23e+06 RLU. Further, the “hCD71:HSA” value in experiment [5] is 1860 ratio.

B17: CD71-binding FN3 domain of SEQ ID NO: 111 (designed binder)
chain: B11 chain with H47S, Y49W, L82I, V85W, T87I
notes: as for B2
As for B17, the “Apical domain:HSA” value in experiment [2] stood at 1940 ratio. Also, in experiment [3], the “hCD71, RLU” value was 3.7e+06 RLU. In addition, the “Apical domain, RLU” value in experiment [4] amounted to 5.04e+06 RLU. In experiment [5], the “hCD71:HSA” value is 1420 ratio.

B18: CD71-binding FN3 domain of SEQ ID NO: 104 (designed binder)
chain: B11 chain with Y49I, L62Q, L82D, T87S
notes: as for B2
Turning to B18, in experiment [2], the “Apical domain:HSA” value is 150 ratio. The “hCD71, RLU” value in experiment [3] was 6.36e+06 RLU. Also, the “Apical domain, RLU” value in experiment [4] worked out at 4.43e+06 RLU. The “hCD71:HSA” value in experiment [5] is 216 ratio.

B19: CD71-binding FN3 domain of SEQ ID NO: 109 (designed binder)
chain: B11 chain with H47I, Y49H, V85N, T87N
notes: as for B2
As to B19, the “Apical domain:HSA” value in experiment [2] amounted to 1030 ratio. In experiment [3], the “hCD71, RLU” value was found to be 3.94e+06 RLU. For the same molecule, the “Apical domain, RLU” value in experiment [4] worked out at 3.35e+06 RLU. The “hCD71:HSA” value in experiment [5] came out at 1210 ratio.

B20: CD71-binding FN3 domain of SEQ ID NO: 113 (designed binder)
chain: B11 chain with H47Y, Y49L, L82D, V85S, T87I
notes: as for B2
B20: the “Apical domain:HSA” value in experiment [2] was 2120 ratio. In experiment [3], the “hCD71, RLU” value was determined as 4.6e+06 RLU. Moreover, the “Apical domain, RLU” value in experiment [4] is 5.94e+06 RLU. The “hCD71:HSA” value in experiment [5] was found to be 1640 ratio.

B21: CD71-binding FN3 domain of SEQ ID NO: 115 (designed binder)
chain: B11 chain with H47D, T66I, V85Q, T87H
notes: as for B2
For B21, the “Apical domain:HSA” value in experiment [2] was 881 ratio. In addition, in experiment [3], the “hCD71, RLU” value stood at 5.19e+06 RLU. The “Apical domain, RLU” value in experiment [4] was 4.58e+06 RLU. In experiment [5], the “hCD71:HSA” value turned out to be 999 ratio.

B22: CD71-binding FN3 domain of SEQ ID NO: 117 (designed binder)
chain: B11 chain with H47W, Y49L, L82T, V85S, T87I
notes: as for B2
Regarding B22, the “Apical domain:HSA” value in experiment [2] was 1420 ratio. In experiment [3], the “hCD71, RLU” value came to 4.21e+06 RLU. Besides, the “Apical domain, RLU” value in experiment [4] is 5.33e+06 RLU. For the same molecule, the “hCD71:HSA” value in experiment [5] was 1120 ratio.

B23: CD71-binding FN3 domain of SEQ ID NO: 101 (designed binder)
chain: MLPAPKNLVVSRVTEDSARLSWTAPDAAFDSFGIGYWERRWYGEAIVLTVPGSERSYDLTGLKPGTEYEVTIRGVKGGGYSGPLSAIFTT
notes: as for B2
In the case of B23, the “Apical domain:HSA” value in experiment [2] amounted to 125 ratio. The “hCD71, RLU” value in experiment [3] is 340000 RLU. The “Apical domain, RLU” value in experiment [4] came to 542000 RLU. The “hCD71:HSA” value in experiment [5] was 78 ratio.

B24: CD71-binding FN3 domain of SEQ ID NO: 102 (designed binder)
chain: MLPAPKNLVVSRVTEDSARLSWTAPDAAFDSFDIGYTEYGGYGEAIILQVPGSERSYDLTGLKPGTEYWVLIQGVKGGGSSVPLVAYFTT
notes: as for B2
With B24, the “Apical domain:HSA” value in experiment [2] was 1290 ratio. For the same molecule, in experiment [3], the “hCD71, RLU” value was found to be 308000 RLU. In addition, the “Apical domain, RLU” value in experiment [4] came out at 5.87e+06 RLU. Also, the “hCD71:HSA” value in experiment [5] was 68 ratio.

(Values after US20260151494A1 (ARO BIOTHERAPEUTICS, published 2026).)
